T1: recombinant human Nectin4 antigen (human, UniProt Q96NY8 32-349)
T1 construct: construct not described
T1 sequence (looked up): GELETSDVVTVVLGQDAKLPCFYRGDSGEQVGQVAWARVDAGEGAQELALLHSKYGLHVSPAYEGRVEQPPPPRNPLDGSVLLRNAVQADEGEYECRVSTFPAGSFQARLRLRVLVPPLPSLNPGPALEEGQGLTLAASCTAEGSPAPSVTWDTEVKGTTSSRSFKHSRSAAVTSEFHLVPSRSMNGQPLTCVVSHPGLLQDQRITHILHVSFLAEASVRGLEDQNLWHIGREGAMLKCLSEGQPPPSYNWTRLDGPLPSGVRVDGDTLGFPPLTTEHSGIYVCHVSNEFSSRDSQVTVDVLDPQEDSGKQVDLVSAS

T2: human Nectin-4 on cells (human, UniProt Q96NY8 32-510)
T2 construct: whole, on cells; also called HEK293 cells expressing human Nectin-4; T47D cells that express human Nectin-4
T2 sequence (looked up): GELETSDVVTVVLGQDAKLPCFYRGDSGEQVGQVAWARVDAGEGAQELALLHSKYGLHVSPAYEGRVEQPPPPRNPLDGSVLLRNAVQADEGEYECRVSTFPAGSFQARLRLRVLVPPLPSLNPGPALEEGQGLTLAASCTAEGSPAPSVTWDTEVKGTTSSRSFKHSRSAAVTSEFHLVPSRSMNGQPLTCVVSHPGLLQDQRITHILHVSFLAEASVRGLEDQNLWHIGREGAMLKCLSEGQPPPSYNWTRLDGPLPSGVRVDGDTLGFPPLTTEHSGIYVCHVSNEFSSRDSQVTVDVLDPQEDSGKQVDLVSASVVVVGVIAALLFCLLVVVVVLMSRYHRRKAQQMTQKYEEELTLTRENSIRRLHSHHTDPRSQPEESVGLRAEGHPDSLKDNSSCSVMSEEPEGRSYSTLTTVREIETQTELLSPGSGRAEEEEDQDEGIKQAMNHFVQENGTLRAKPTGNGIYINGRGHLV

T3: cyno Nectin-4 on cells (cyno, UniProt A0A2K5WES1 32-510)
T3 construct: whole, on cells; also called HEK293 cells expressing cyno Nectin-4; cyno Nectin-4 cells
T3 sequence: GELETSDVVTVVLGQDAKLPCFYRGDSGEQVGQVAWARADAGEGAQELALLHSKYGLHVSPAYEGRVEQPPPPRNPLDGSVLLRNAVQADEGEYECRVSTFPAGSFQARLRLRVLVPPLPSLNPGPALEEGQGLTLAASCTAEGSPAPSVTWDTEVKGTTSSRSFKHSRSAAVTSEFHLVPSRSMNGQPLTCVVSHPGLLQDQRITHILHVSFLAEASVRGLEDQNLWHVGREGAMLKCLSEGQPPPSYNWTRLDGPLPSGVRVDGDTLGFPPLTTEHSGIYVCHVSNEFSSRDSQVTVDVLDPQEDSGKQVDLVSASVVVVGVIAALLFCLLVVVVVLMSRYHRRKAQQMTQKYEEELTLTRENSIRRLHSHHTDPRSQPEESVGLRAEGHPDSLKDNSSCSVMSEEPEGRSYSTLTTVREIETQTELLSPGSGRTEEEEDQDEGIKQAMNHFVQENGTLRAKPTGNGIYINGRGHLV

T4: cynoNectin4 antigen (cynomolgus (cyno), UniProt A0A2K5WES1 32-349)
T4 construct: construct not described; also called cynomolgus (cyno) Nectin-4
T4 sequence: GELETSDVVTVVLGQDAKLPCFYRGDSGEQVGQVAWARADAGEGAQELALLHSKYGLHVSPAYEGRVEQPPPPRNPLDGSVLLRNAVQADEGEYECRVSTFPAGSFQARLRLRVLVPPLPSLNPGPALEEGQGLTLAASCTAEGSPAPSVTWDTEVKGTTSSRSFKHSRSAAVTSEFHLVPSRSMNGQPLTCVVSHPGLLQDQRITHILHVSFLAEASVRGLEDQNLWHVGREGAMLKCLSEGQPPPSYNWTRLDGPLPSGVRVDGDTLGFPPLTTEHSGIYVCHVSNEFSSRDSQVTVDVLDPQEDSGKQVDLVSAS


Legend:
[1] = target: T1, recombinant human Nectin4 antigen; assay: ELISA, coated antigen, PSB pH 7.4
Procedure: 1) Coat ELISA plates with 100 μL of 1 μg/mL recombinant human Nectin4 antigen or cynoNectin4 antigen in carbonate-bicarbonate coating buffer. […] 2) Cover plates with sealing film and incubate overnight at 4° C. [0444] 3) Decant plates and tap out residual liquid on a stack of paper towels. [0445] 4) Wash wells twice by dispensing 200 μL of pH 6.0 or pH 7.4 ELISA incubation buffer to the wells and completely aspirate the contents. [0446] 5) Add 200 μL of pH 6.0 or pH 7.4 ELISA incubation buffer to the wells. Cover with sealing film and place the plate onto a plate shaker set to 50 rpm for 60 minutes at room temperature. [0447] 6) Decant plates and tap out residual liquid on a stack of paper towels. […] 7) Serially dilute test articles in 3-fold dilutions starting at 3000 ng/mL in pH 6.0 or pH 7.4 ELISA incubation buffer. […] 8) Add 100 μL/well of diluted test articles to the plates [0450] 9) Cover with sealing film and place the plates onto a plate shaker set to 50 rpm for 60 minutes at room temperature. [0451] 10) Decant plates and tap out residual liquid on a stack of paper towels. [0452] 11) Wash wells three times by dispensing 200 μL of pH 6.0 or pH 7.4 ELISA wash buffer to the wells and completely aspirate the contents. […] 12) Dilute the HRP secondary antibody at 1:2500 in pH 6.0 or pH 7.4 ELISA incubation buffer. [0454] […]

[2] = target: T2, human Nectin-4 on cells; assay: FACS, HEK293 cells expressing human Nectin-4
Procedure: FACS analysis was carried out using HEK293 cells expressing human Nectin-4.

[3] = target: T3, cyno Nectin-4 on cells; assay: FACS, HEK293 cells expressing cyno Nectin-4
[4] = target: T1, recombinant human Nectin4 antigen; assay: ELISA, ratio of EC50s
Procedure: (§1) 1) Coat ELISA plates with 100 μL of 1 μg/mL recombinant human Nectin4 antigen or cynoNectin4 antigen in carbonate-bicarbonate coating buffer. […] 2) Cover plates with sealing film and incubate overnight at 4° C. [0444] 3) Decant plates and tap out residual liquid on a stack of paper towels. [0445] 4) Wash wells twice by dispensing 200 μL of pH 6.0 or pH 7.4 ELISA incubation buffer to the wells and completely aspirate the contents. [0446] 5) Add 200 μL of pH 6.0 or pH 7.4 ELISA incubation buffer to the wells. Cover with sealing film and place the plate onto a plate shaker set to 50 rpm for 60 minutes at room temperature. [0447] 6) Decant plates and tap out residual liquid on a stack of paper towels. […] 7) Serially dilute test articles in 3-fold dilutions starting at 3000 ng/mL in pH 6.0 or pH 7.4 ELISA incubation buffer. […] 8) Add 100 μL/well of diluted test articles to the plates [0450] 9) Cover with sealing film and place the plates onto a plate shaker set to 50 rpm for 60 minutes at room temperature. [0451] 10) Decant plates and tap out residual liquid on a stack of paper towels. [0452] 11) Wash wells three times by dispensing 200 μL of pH 6.0 or pH 7.4 ELISA wash buffer to the wells and completely aspirate the contents. […] 12) Dilute the HRP secondary antibody at 1:2500 in pH 6.0 or pH 7.4 ELISA incubation buffer. [0454] […] 14) Cover with sealing film and place the plates onto a plate shaker set to 50 rpm for 60 minutes at room temperature. […] 15) Decant plates and tap out residual liquid on a stack of paper towels. […] 16) Wash wells three times by dispensing 200 μL of pH 6.0 or pH 7.4 ELISA wash buffer to the wells and completely aspirate the contents. [0458] 17) Dispense 50 μL per well of the TMB substrate solution into all wells of the plates.

[5] = target: T4, cynoNectin4 antigen; assay: ELISA, ratio of EC50s
Procedure: as §1

Binder | Ratio (pH 7.4/6.0) of EC50 [2] | Ratio (pH 7.4/6.0) of EC50 [3] | EC50 ratio pH 7.4/6.0 [5] | EC50 ratio pH 7.4/pH 6.0 [4] | also measured
BAP-143-wildtype (antibody, V domains shown, 150 kDa used in SPR; also called BAP143-00-00; benchmark (BM)) VH: EVQLVESGGGLVQPGGSLRLSCAASGFTFSSYNMNWVRQAPGKGLEWVSYISSSSSTIYYADSVKGRFTISRDNAKNSLSLQMNSLRDEDTAVYYCARAYYYGMDVWGQGTTVTVSS VL: DIQMTQSPSSVSASVGDRVTITCRASQGISGWLAWYQQKPGKAPKFLIYAASTLQSGVPSRFSGSGSGTDFTLTISSLQPEDFATYYCQQANSFPPTFGGGTKVEIK |  |  |  |  | EC50 [1]: 0.0216 µg/mL
BAP-143-06-24-16 (antibody, V domains shown, Used as a conjugate with a linker payload (CAB ADC)) VH: EVQLVQSGAEVKKPGATVKISCKVSGFTFSSYNMNWIRQSPSRGLEWLGYISSSSSTIYYADSVKGRFTISRDNSKNTLYLQMNSLRAEDTAVYYCARAYYYGDDVWGQGTLVTVSS VL: DIQMTQSPSSVSASVGDRVTITCHASQGISGWLAWYQQKPGKAPKFLIYAASTLQSGVPSRFSGSGSGTDFTLTISSLQPEDFATYYCQQANSFPPTFGGGTKVEIK | 1.4 | 1.4 | 1.08 |  | EC50 [1]: 0.133 µg/mL; EC50 ratio pH 7.4/6.0 [4]: 3.63
BAP-143-00-05 (antibody, V domains shown, Used as a conjugate with a linker payload (CAB ADC)) VH: EVQLVESGGGLVQPGGSLRLSCAASGFTFSSYNMNWVRQAPGKGLEWVSYISSSSSTIYYADSVKGRFTISRDNAKNSLSLQMNSLRDEDTAVYYCAEAYYYGMDVWGQGTTVTVSS VL: DIQMTQSPSSVSASVGDRVTITCRASQGISGWLAWYQQKPGKAPKFLIYAASTLQSGVPSRFSGSGSGTDFTLTISSLQPEDFATYYCQQANSFPPTFGGGTKVEIK |  |  |  | 3.2 | 
BAP-143-00-06 (antibody, V domains shown, Used as a conjugate with a linker payload (CAB ADC)) VH: EVQLVESGGGLVQPGGSLRLSCAASGFTFSSYNMNWVRQAPGKGLEWVSYISSSSSTIYYADSVKGRFTISRDNAKNSLSLQMNSLRDEDTAVYYCARAYYYGDDVWGQGTTVTVSS VL: DIQMTQSPSSVSASVGDRVTITCRASQGISGWLAWYQQKPGKAPKFLIYAASTLQSGVPSRFSGSGSGTDFTLTISSLQPEDFATYYCQQANSFPPTFGGGTKVEIK |  |  |  | 2.83 | 
BAP-143-00-03 (antibody, V domains shown, Used as a conjugate with a linker payload (CAB ADC)) VH: EVQLVESGGGLVQPGGSLRLSCAASGFTFSSYNMNWVRQAPGKGLEWVSYISSSSSTIYYADSVKGRFTISRDNAKNSLSLQMNSLRDEDTAVYYCARAYYYGMDVWGQGTTVTVSS VL: DIQMTQSPSSVSASVGDRVTITCRASQGISGWLAWYQQKPGKAPKFLIYAASTLQSGVPSRFSGSGSGTDFTLTISSLQPEDFATYYCQQANSFPDTFGGGTKVEIK |  |  |  | 7.13 | 
BAP-143-00-01 (antibody, V domains shown, Used as a conjugate with a linker payload (CAB ADC)) VH: EVQLVESGGGLVQPGGSLRLSCAASGFTFSSYNMNWVRQAPGKGLEWVSYISSSSSTIYYADSVKGRFTISRDNAKNSLSLQMNSLRDEDTAVYYCARAYYYGMDVWGQGTTVTVSS VL: DIQMTQSPSSVSASVGDRVTITCRASQGISGWEAWYQQKPGKAPKFLIYAASTLQSGVPSRFSGSGSGTDFTLTISSLQPEDFATYYCQQANSFPPTFGGGTKVEIK | 2.2 | 2 |  |  | 
BAP-143-00-04 (antibody, V domains shown, Used as a conjugate with a linker payload (CAB ADC)) VH: EVQLVESGGGLVQPGGSLRLSCAASGFTFSSYNDNWVRQAPGKGLEWVSYISSSSSTIYYADSVKGRFTISRDNAKNSLSLQMNSLRDEDTAVYYCARAYYYGMDVWGQGTTVTVSS VL: DIQMTQSPSSVSASVGDRVTITCRASQGISGWLAWYQQKPGKAPKFLIYAASTLQSGVPSRFSGSGSGTDFTLTISSLQPEDFATYYCQQANSFPPTFGGGTKVEIK |  |  |  | 2.37 | 

Further lines, with some results ahead:

Ratio (pH 7.4/6.0) of EC50 [2] | Ratio (pH 7.4/6.0) of EC50 [3] | EC50 ratio pH 7.4/6.0 [5] | EC50 ratio pH 7.4/pH 6.0 [4] | Binder | also measured
2.8 | 2.7 | 1.83 |  | BAP-143-06-33-03 (antibody, V domains shown, Used as a conjugate with a linker payload (CAB ADC)) VH: QVQLVQSGAEVKKPGASVKVSCKASGFTFSSYNMNWVRQARGQRLEWIGYISSSSSTIYYADSVKGRFTISRDNSKNTLYLQMNSLRAEDTAVYYCARAYYYGMDKWGQGTLVTVSS VL: DIQMTQSPSSVSASVGDRVTITCRASQGISGWLAWYQQKPGKAPKFLIYAASTLQSGVPSRFSGSGSGTDFTLTISSLQPEDFATYYCQQANSEPPTFGGGTKVEIK | 
1.5 | 1.5 |  |  | BAP-143-06-33-16 (antibody, V domains shown, Used as a conjugate with a linker payload (CAB ADC)) VH: EVQLVQSGAEVKKPGATVKISCKVSGFTFSSYNMNWIRQSPSRGLEWLGYISSSSSTIYYADSVKGRFTISRDNSKNTLYLQMNSLRAEDTAVYYCARAYYYGDDVWGQGTLVTVSS VL: DIQMTQSPSSVSASVGDRVTITCRASQGISGWEAWYQQKPGKAPKFLIYAASTLQSGVPSRFSGSGSGTDFTLTISSLQPEDFATYYCQQANSFPPTFGGGTKVEIK | 
2 | 1.8 | 3.6 |  | BAP-143-07-03-12 (antibody, V domains shown, Used as a conjugate with a linker payload (CAB ADC)) VH: EVQLVESGGGLVQPGGSLRLSCAASGFTFSSYNMNWVRQAPGKGLEWVSYISSSSSTIYYADSVKGRFTISRDNAKNSLSLQMNSLRDEDTAVYYCARAYYYGMDKWGQGTTVTVSS VL: DIQMTQSPSSVSASVGDRVTITCRASQGISGWEAWYQQKPGKAPKFLIYAASTLQSGVPSRFSGSGSGTDFTLTISSLQPEDFATYYCQQANSFPPTFGGGTKVEIK | 
